{"source": "patent US20250262210A1", "about": "(TRUSTEES OF COLUMBIA UNIVERSITY IN THE CITY OF NEW YORK, published 2025)", "binders": {"B1": {"name": "LZTR1 R810W-FLAG (other, human, UniProt Q8N653 1-840, looked up)", "chain": "MAGPGSTGGQIGAAALAGGARSKVAPSVDFDHSCSDSVEYLTLNFGPFETVHRWRRLPPCDEFVGARRSKHTVVAYKDAIYVFGGDNGKTMLNDLLRFDVKDCSWCRAFTTGTPPAPRYHHSAVVYGSSMFVFGGYTGDIYSNSNLKNKNDLFEYKFATGQWTEWKIEGRLPVARSAHGATVYSDKLWIFAGYDGNARLNDMWTIGLQDRELTCWEEVAQSGEIPPSCCNFPVAVCRDKMFVFSGQSGAKITNNLFQFEFKDKTWTRIPTEHLLRGSPPPPQRRYGHTMVAFDRHLYVFGGAADNTLPNELHCYDVDFQTWEVVQPSSDSEVGGAEVPERACASEEVPTLTYEERVGFKKSRDVFGLDFGTTSAKQPTQPASELPSGRLFHAAAVISDAMYIFGGTVDNNIRSGEMYRFQFSCYPKCTLHEDYGRLWESRQFCDVEFVLGEKEECVQGHVAIVTARSRWLRRKITQARERLAQKLEQEAAPVPREAPGVAAGGARPPLLHVAIREAEARPFEVLMQFLYTDKIKYPRKGHVEDVLLIMDVYKLALSFQLCRLEQLCRQYIEASVDLQNVLVVCESAARLQLSQLKEHCLNFVVKESHFNQVIMMKEFERLSSPLIVEIVRRKQQPPPRTPLDQPVDIGTSLIQDMKAYLEGAGAEFCDITLLLDGHPRPAHKAILAARSSYFEAMFRSFMPEDGQVNISIGEMVPSRQAFESMLRYIYYGEVNMPPEDSLYLFAAPYYYGFYNNRLQAYCKQNLEMNVTVQNVLQILEAADKTQALDMKRHCLHIIVHQFTKVSKLPTLWSLSQQLLLDIIDSLASHISDKQCAELGADI", "notes": "Stably expressed in U87 cells by lentivirus; also called LZTR1-FLAG-R810W; LZTR1 RW; not shown: FLAG tag"}}, "key": {"SREBF2": {"molecular_target": "T1, SREBF2 (human, UniProt Q12772 1-1141, limits assumed)", "T1 sequence (looked up)": "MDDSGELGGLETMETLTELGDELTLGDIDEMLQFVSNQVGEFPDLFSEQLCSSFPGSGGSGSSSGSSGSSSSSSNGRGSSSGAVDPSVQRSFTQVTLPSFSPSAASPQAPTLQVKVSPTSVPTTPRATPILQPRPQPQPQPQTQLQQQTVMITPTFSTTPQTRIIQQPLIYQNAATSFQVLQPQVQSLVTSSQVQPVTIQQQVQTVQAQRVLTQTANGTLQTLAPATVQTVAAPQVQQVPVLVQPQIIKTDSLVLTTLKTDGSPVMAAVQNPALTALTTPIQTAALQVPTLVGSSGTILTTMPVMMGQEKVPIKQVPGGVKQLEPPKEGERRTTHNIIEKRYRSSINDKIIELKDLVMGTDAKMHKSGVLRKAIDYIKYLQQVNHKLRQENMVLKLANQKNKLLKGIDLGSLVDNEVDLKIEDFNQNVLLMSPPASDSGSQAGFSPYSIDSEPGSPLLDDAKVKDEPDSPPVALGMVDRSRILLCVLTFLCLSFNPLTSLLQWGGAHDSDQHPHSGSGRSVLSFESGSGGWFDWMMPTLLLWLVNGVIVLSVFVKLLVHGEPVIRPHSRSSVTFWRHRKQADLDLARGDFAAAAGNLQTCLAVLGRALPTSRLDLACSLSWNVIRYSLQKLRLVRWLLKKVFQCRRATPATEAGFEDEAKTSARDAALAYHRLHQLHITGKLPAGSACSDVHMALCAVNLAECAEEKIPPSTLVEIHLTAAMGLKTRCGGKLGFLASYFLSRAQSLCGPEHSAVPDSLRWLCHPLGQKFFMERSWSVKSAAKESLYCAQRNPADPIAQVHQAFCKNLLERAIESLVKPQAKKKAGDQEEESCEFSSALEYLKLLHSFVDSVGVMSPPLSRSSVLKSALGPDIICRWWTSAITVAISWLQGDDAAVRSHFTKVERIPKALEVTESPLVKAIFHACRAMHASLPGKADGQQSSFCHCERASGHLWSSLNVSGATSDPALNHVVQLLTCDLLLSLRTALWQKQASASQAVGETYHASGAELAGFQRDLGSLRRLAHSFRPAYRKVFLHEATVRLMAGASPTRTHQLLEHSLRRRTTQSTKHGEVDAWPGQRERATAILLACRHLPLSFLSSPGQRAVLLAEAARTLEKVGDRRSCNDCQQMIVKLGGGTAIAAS", "test": "IP/MS, LZTR1 R810W-FLAG, U87", "how_it_was_run": "(§1)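 Gel slices were reduced with 5 mM DTT, alkylated with 11 mM IAA and digested overnight at 37° C. with trypsin. Peptides were analysed on an Orbitrap Fusion Tribrid by LC-MS/MS.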"}, "MOCOS": {"molecular_target": "T2, MOCOS (human, UniProt Q96EN8 1-888)", "T2 sequence (looked up)": "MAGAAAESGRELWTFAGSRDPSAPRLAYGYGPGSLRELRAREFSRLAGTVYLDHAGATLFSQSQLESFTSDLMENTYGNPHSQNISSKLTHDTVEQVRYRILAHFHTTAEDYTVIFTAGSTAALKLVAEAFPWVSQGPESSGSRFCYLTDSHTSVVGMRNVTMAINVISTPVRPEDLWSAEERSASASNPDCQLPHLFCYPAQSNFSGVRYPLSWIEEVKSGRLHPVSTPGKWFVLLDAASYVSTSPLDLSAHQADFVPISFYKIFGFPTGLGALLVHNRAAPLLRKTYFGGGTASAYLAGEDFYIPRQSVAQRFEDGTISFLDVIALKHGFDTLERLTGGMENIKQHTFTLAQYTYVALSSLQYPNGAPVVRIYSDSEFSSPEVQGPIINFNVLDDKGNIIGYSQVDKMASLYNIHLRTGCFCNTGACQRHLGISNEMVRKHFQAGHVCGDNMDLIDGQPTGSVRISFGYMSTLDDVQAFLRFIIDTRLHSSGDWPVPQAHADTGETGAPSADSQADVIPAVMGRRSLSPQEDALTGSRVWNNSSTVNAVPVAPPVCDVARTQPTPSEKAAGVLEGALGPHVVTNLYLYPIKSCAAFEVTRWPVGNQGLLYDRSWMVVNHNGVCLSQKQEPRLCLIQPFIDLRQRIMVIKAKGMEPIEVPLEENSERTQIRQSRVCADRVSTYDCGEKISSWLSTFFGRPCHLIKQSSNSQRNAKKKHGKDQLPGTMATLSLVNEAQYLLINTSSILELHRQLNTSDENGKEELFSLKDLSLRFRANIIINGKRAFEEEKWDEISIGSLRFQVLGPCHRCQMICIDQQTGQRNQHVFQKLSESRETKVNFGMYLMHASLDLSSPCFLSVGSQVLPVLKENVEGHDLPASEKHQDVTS", "test": "IP/MS, LZTR1 R810W-FLAG, U87", "how_it_was_run": "as §1"}}, "data": [{"binder": "B1", "values": [{"measurement": "binding result", "setting": "SREBF2", "value": "binds"}, {"measurement": "binding result", "setting": "MOCOS", "value": "binds"}]}]}
